Reference: article PMC5853512, “Arabidopsis MKK10-MPK6 mediates red-light-regulated opening of seedling cotyledons through phosphorylation of PIF3” (Journal of Experimental Botany, 2017)

Target: T1, GST-PIF3 (Arabidopsis thaliana, UniProt O80536 1-524)
T1 construct: coding region with an NdeI site before the first ATG and an XhoI site at its 3' end, NdeI/XhoI fragment cloned into pGEX4T-2; source: E. coli BL21, purified (Glutathione Sepharose 4B)
T1 sequence (looked up): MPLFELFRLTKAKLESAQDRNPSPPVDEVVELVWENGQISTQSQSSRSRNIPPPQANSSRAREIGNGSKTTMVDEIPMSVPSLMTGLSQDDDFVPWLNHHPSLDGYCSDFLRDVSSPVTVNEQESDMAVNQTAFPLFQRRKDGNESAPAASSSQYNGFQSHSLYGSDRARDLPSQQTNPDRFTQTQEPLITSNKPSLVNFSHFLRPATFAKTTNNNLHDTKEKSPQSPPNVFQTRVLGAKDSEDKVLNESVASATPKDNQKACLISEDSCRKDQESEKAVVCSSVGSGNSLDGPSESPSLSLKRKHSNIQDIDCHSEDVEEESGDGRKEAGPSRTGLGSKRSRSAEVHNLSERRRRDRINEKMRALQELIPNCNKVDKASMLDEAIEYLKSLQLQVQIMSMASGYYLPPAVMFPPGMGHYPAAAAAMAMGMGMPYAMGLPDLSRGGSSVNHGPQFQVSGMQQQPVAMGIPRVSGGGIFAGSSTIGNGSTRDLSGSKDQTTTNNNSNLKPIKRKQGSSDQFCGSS
Assay: pull-down; GST or GST-PIF3 bound to Glutathione Sepharose 4B beads, incubated with His-MPK6 in 50 mM Tris-HCl pH 7.5, 100 mM NaCl, 0.02% Triton X-100 at 4 °C for 2 h; immunoblot with anti-GST and anti-His
Settings: both partners purified

binding result: binds
B1: His-MPK6 (enzyme, Arabidopsis thaliana, UniProt Q39026 1-395, looked up)
chain: MDGGSGQPAADTEMTEAPGGFPAAAPSPQMPGIENIPATLSHGGRFIQYNIFGNIFEVTAKYKPPIMPIGKGAYGIVCSAMNSETNESVAIKKIANAFDNKIDAKRTLREIKLLRHMDHENIVAIRDIIPPPLRNAFNDVYIAYELMDTDLHQIIRSNQALSEEHCQYFLYQILRGLKYIHSANVLHRDLKPSNLLLNANCDLKICDFGLARVTSESDFMTEYVVTRWYRAPELLLNSSDYTAAIDVWSVGCIFMELMDRKPLFPGRDHVHQLRLLMELIGTPSEEELEFLNENAKRYIRQLPPYPRQSITDKFPTVHPLAIDLIEKMLTFDPRRRITVLDALAHPYLNSLHDISDEPECTIPFNFDFENHALSEEQMKELIYREALAFNPEYQQ
notes: coding region amplified from seedling cDNA with an NdeI site before the first ATG, NdeI/SalI fragment cloned into pET28a(+); The NdeI site of pET28a(+) would put the His tag at the N-terminus (surmised); source: E. coli BL21, purified (Ni2+-chelating Sepharose Fast Flow)
